Columns and labels:
[1] = target: Wild type KIT expressed on cells (UniProt P10721 26-976, limits assumed); assay: cell-based or functional assay
[2] = target: T1, Soluble KITD4-5 fragment (amino acids 308-514) (human, UniProt P10721 308-514, glycosylated Asn320 (partial deglycosylation with endoglycosidase F1)); assay: SPR (Biacore T100, 25 C), KITD4-5 amine-coupled to a CM5 chip, Fab as analyte 0.12-10 nM, 1:1 Langmuir fit
T1 construct: range 308-514; Expressed in Sf9 insect cells with an N-terminal His-tag and a TEV site; also called KITm-5; KITm-s

[3] = target: T1, Soluble KITD4-5 fragment (amino acids …); assay: SPR (Biacore T100, 25 C), KITD4-5 amine-coupled to a CM5 chip, Fab as analyte, long dissociation time, 1:1 Langmuir fit

Row | Binder | concentration at which KIT autophosphorylation was inhibited (NIH-3T3 cells expressing wt KIT, SCF stimulation) [1] [nM] | Kd [2] [nM] | Kd [3] [nM]
1 | IgG 79D (antibody, V domains shown) VH: EVQLVESGGGLVQPGGSLRLSCAASGFNISVYMMHWVRQAPGKGLEWVASIYPYSGYTYYADSVKGRFTISADTSKNTAYLQMNSLRAEDTAVYYCARYVYHALDYWGQGTLVTVSS VL: DIQMTQSPSSLSASVGDRVTITCRASQRGLRNVAVAWYQQKPGKAPKLLIYSASSLYSGVPSRFSGSRSGTDFTLTISSLQPEDFATYYCQQWAVHSLITFGQGTKVEIKR | 1 |  | 
2 | Fab19 (Fab, Human synthetic Fab from phage library F, made in E. coli; Light chain carries a C-terminal Flag-tag; also called parental synthetic Fab; anti-D4 Fab) VH: EVQLVESGGGLVQPGGSLRLSCAASGFNISSYSMHWVRQAPGKGLEWVASIYPYSGYTYYADSVKGRFTISADTSKNTAYLQMNSLRAEDTAVYYCARYVYHALDYWGQGTLVTVSS light: DIQMTQSPSSLSASVGDRVTITCRASQSVSSAVAWYQQKPGKAPKLLIYSASSLYSGVPSRFSGSRSGTDFTLTISSLQPEDFATYYCQQWAVHSLITFGQGTKVEIKRTVAAPSVFIFPPSDSQLKSGTASVVCLLNNFYPREAKVQWKVDNALQSGNSQESVTEQDSKDSTYSLSSTLTLSKADYEKHKVYACEVTHQGLSSPVTKSFNRGECGGSDYKDDDDK | 50 | 0.63 | 
3 | Fab79D (Fab, Made in E. coli; also called last generation Fab; KIT79D (Fab)) heavy: EVQLVESGGGLVQPGGSLRLSCAASGFNISVYMMHWVRQAPGKGLEWVASIYPYSGYTYYADSVKGRFTISADTSKNTAYLQMNSLRAEDTAVYYCARYVYHALDYWGQGTLVTVSSASTKGPSVFPLAPSSKSTSGGTAALGCLVKDYFPEPVTVSWNSGALTSGVHTFPAVLQSSGLYSLSSVVTVPSSSLGTQTYICNVNHKPSNTKVDKKVEPKSC light: DIQMTQSPSSLSASVGDRVTITCRASQRGLRNVAVAWYQQKPGKAPKLLIYSASSLYSGVPSRFSGSRSGTDFTLTISSLQPEDFATYYCQQWAVHSLITFGQGTKVEIKRTVAAPSVFIFPPSDSQLKSGTASVVCLLNNFYPREAKVQWKVDNALQSGNSQESVTEQDSKDSTYSLSSTLTLSKADYEKHKVYACEVTHQGLSSPVTKSFNRGECGGSDYKDDDDK |  |  | 0.0064

Reference: patent WO2015050959A1 (dated 2015)
